# Assay results: the DeepSol protein solubility set
# Assay: soluble on expression in E. coli; label from the status in PepcDB or PDB records
row,Sequence,soluble on expression in E. coli
1,MGSDKIHHHHHHMVDVLVIGGGNAALCAALTAREAGASVLLLEAAPREWRGGNSQHTRNLRCMHDAPQDVLVESYPEEEFWQDLWRVTDGNTNEALARLVIRTSSQCRDWMRKHGVNFQPPLSGALHVARTNAFFMGGGKALVNAYYRSAERLGVQVRYNTPVHALELHDGEFVAALAGSERITAKACVLAAGGFESNREWLREAWGENARGEWPADNFLIRGTRFNQGVLLKFMMDAGADIIGDPSQSHCVAIDARAPLYDGGICTRVDCVSLGIVVNRDAERFYDEGEDFWPKRYAIWGRLVAQQPGQIGYSIIDSKAIGHFMPPVFPGAQANTLAELACQLGLDAEKFTHTVTQYNQACQPGHFDHTLLDDCATKNLTPAKTHWARPLDAPPYYGYALRPGITFTYLGLKVNERAAVHFAGHPSRNLFVAGEMMAGNVLGKGYTAGVGMSIGTTFGRIAGIEAARAAHKEAQHETA,not soluble
2,MSVIHPLQNLLTSRDGSLVFAIIKNCILSFKYQSPNHWEFAGKWSDDFDKIQESRNTTAKEQQGQSSENENENKKLKSNKGDSIKRTAAKVPSPGLGAPPIYSYIRNLRLTSDESRLIACADSDKSLLVFDVDKTSKNVLKLRKRFCFSKRPNAISIAEDDTTVIIADKFGDVYSIDINSIPEEKFTQEPILGHVSMLTDVHLIKDSDGHQFIITSDRDEHIKISHYPQCFIVDKWLFGHKHFVSSICCGKDYLLLSAGGDDKIFAWDWKTGKNLSTFDYNSLIKPYLNDQHLAPPRFQNENNDIIEFAVSKIIKSKNLPFVAFFVEATKCIIILEMSEKQKGDLALKQIITFPYNVISLSAHNDEFQVTLDNKESSGVQKNFAKFIEYNLNENSFVVNNEKSNEFDSAIIQSVQGDSNLVTKKEEIYPLYNVSSLRKHGEHYSHHHHHH,soluble
3,ANQLRELKQTHTYTVFGYTDGGFAVISADDLAPELLGVSESNFVETDNPSFKWWLKAIDEVITNAVKSNKPLNVIKPDPSKYAAEVSTLLTTTWGQQMPYNKLLPKTKKGRLITGAVATATAQVLNYFKYPVRGIGSHTVHYPANDPSGVAISADFGNTTYDWANMKDNYSGNYTEAEANAVATLMLHCGVASEMQYGGPNEGSGAYMTDCAAGLRTYFGFTDAEYITRANYTDEQWMDIVFSELTKGHPLIYGGVSPGSMGQDAGHAFVIDGYNKAGLVSVNWGWNGDVDGYYKIDLLNPGNMYSFTAEQDMVRGVYGKP,soluble
4,MSLYSVISKILNFILVKMSKSLYVIGKDNIPKDSKYVVTCTHESYNEVIMLGMALYPNQIHYMAKKELFKNKWIGKFLTSLNAFPVDRENPGPSTLKRPINLLKDNKTVGIFPTGSRTSQEGAPLKRGASTIAMLSKSPILPVAYVGPTKIHGLLTGQAYINIGKPIDINDLPKDLKRNERIDYITKEIETRTAKLQQELHEIVKSEGHHHHHH,soluble
5,SSGLVPRGPLGSHMDAVDATMEKLRAQCLSRGASGIQGLARFFRQLDRDGSRSLDADEFRQGLAKLGLVLDQAEAEGVCRKWDRNGSGTLDLEEFLRALRPPMSQAREAVIAAAFAKLDRSGDGVVTVDDLRGVYSGRAHPKVRSGEWTEDEVLRRFLDNFDSSEKDGQVTLAEFQDYYSGVSASMNTDEEFVAMMTSAWQLKL,soluble
6,MSAGKIDVHGFEKETLFFKNIASGSKGNCTLIWDSTDLIVIDLGITMKKFRDSIKSLDLAGRSISLFISHEHSDHIGGVPTTSKYVDMDVYMRPALSGSFRRKTYEMDGSLVVGNFEIRAFEIPHDAADPVGFSVLWHNRKISVVSDLGKVTDRVIESIRNSDILAFESNHDVEMLRTGSYPEALKRRILSDHGHLSNEQSAEAISRVATDDMRIILTHLSQENNRPEIALNEVKSYLENRNVRYRSIETADQYTGSSLYTLER,not soluble
7,NILTDGAIKKLTLNKLFERYMSTRELKESTRANYLKTWENRVKDEIGNIKVIQILPSHIKSFYSKLSKAGYAYSTIKFINNMIYPALEMAVDDDIIRKNPAKFSISDYGRQAEERIALTVLQQEKMLEFVKNNQVYNTYYPMLRIMLGTGVRCGELIGLTWEDVDVRTKAVSIDHQLIYKDLGDGYKFHISTPKTDSGIRTIPMTSDVQRAFEEQKKLNFMLQKGKDVEIDGYKGFIFMAKSGRPLMPSAINNILYNIVDAYNKKEVQIAKTEHRNAELLPTVSAHIMRHTACTRMAEKRMDVKVLQYIMGHAHIDVTMDVYNHVSEMSRIESEITRLESVAIS,not soluble
8,MAQASPPRPERVLGASSPEARPAQEALLLPTGVFQVAEKMEKRTCALCPKDVEYNVLYFAQSENIAAHENCLLYSSGLVECEDQDPLNPDRSFDVESVKKEIQRGRKLKCKFCHKRGATVGCDLKNCNKNYHFFCAKKDDAVPQSDGVRGIYKLLCQQHAQFPIIAQSAKFSGVKRKRGRKKPLSGNHVQPPETMKCNTFIRQVKEEHGRHTDATVKVPFLKKCKEAGLLNYLLEEILDKVHSIPEKLMDETTSESDYEEIGSALFDCRLFEDTFVNFQAAIEKKIHASQQRWQQLKEEIELLQDLKQTLCSFQENRDLMSSSTSISSLSY,not soluble
9,ANQQTSGKVLYEGKEFDYVFSIDVNEGGPSYKLPYNTSDDPWLTAYNFLQKNDLNPMFLDQVAKFIIDNTKGQMLGLGNP,soluble
10,MSLEHPLQRFFHSMRAKRPFDWVRFQRRDLLLIDHPLCQAVFSRQGAQLLHFQPQGERPLLWCAGEWPALSSAPVRGGIPVCWPWFGSHPNGSEWPQQGWARQREWRLLDAYADESKVVVSWQLDLEDWHVRLDARLGQRLELELCSYHEEDDDCLFSFALQPYWRVGALSRVVVHGMELESARGQRGASRIPGTWIPRGAVKQVLYHPGSLVLEDGGWNRRLRIDKNVSAGSVIWHPGSRPVEQVEPGEAERFLCIGAAGYRPGGLILAPGERMRLSLAAGLQEGHHHHHH,soluble
11,AHHHHHHASAKWVCKICGYIYDEDAGDPDNGISPGTKFEELPDDWVCPICGAPKSEFEKLEDGSNPMPRKISFDPPSFIQLTRKQNKELLEFVLAEFEIYLPITTVHAYLLAKAFKGKNPKEEVQKLRDIVKIVDLTDELLGEIAEIDASLIKDGYFFTLEDLITAVSAITSKSLLVVNGNAEKYSPLRKYGLDCVNYEKFLEEVEVLAREEAKREKII,soluble
12,MKEEAVRVIEEVLKQGRTAMVEYEAKQVLKAYGLPVPEEKLAKTLDEALEYAKEIGYPVVLKLMSPQILHKSDAKVVMLNIKNEEELKKKWEEIHENAKKYRPDAEILGVLVAPMLKPGREVIIGVTEDPQFGHAIMFGLGGIFVEILKDVTFRLVPITEKDARKMIQEIKAYPILAGARGEEPADIDAIVDMLLKVSKLVDDLKDYIKEMDLNPVFVYNKGEGAVIVDSRIILKPKD,soluble
13,MKITREELAVQVDVAQWSWLRAHLERGGLIVVNRGLDLVEVGVSIASDDTAVVGDWIQTGLLAKPSAEQISAWDANEEISFSALIISPYVLIQEQKQ,not soluble
14,MGSDKIHHHHHHMIVNLSRLGKSGTGMWQYSIKFLTALREIADVDAIICSKVHADYFEKLGYAVVTVPNIVSNTSKTSRLRPLVWYVYSYWLALRVLIKFGNKKLVCTTHHTIPLLRNQTITVHDIRPFYYPDSFIQKVYFRFLLKMSVKRCKHVLTVSYTVKDSIAKTYNVDSEKISVIYNSVNKSDFIQKKEKENYFLAVGASWPHKNIHSFIKNKKVWSDSYNLIIVCGRTDYAMSLQQMVVDLELKDKVTFLHEVSFNELKILYSKAYALVYPSIDEGFGIPPIEAMASNTPVIVSDIPVFHEVLTNGALYVNPDDEKSWQSAIKNIEQLPDAISRFNNYVARYDFDNMKQMVGNWLAESK,not soluble
15,MSQQKICFIGAGNMTRSIISGLIRSGYPASQVQATNPSQGKLDALATDFGVRVSQDNVSAAQDADVIILSVKPQLMEQVCQALQGIDMSNKLLITIAAGIKASRYSEYLAQPITLIRTMPNTPMQIGVGMTGLYAPQSLSDAQKAIAERLMSSGGEIVWVNEESDINQVIALAGSSPAYFFLLMESMIDAGKQMGMDEAKARSLVQQAALGAAMMAKQNPELTLGNLRENVTSKGGTTAQAIATFEAADLRGVVKKAMENCINRAEEMAKTF,soluble
16,MGSDKIHHHHHHEQKTATSEMTDVSRLMPVKIKQTVKGQEEEMLIDTVKEANRKNIKFSIAGAQHSMGGHTYYEDGIVLDMTGYNKILSLDQEKKTIRVQSGATWNDIQKYVNPYGLAVKVMQSQNIFTIGGSLSANAHGRDIRYGSLIDTVKSFRLLKADGMIITVTPKDDLFTAVIGGYGLFGVILDVTLELTDDELYVMKTEKMNYSTYSDYFSKHVKGNPDVRMHLARISTAKKGFLKDMYVTNYVLANHQDQLSSYSELKEDEYTGATKFALGLSRRYEWGRNWLWDTQQSYFLSQNGTEISRNNVMRSESKFLEYENNDNTDVLQEYFVPVKEYGSYIDDLRQTLSDEDLNLLNITIRYVQKNEKADLSYAKDDMFSLVLLINEGFSKEDQADTARIIRRMTDVAIKHGGSYYLPYMTYQTKAQMRQAYPKSEAFFQKKRTYDPDERFMNYFYQRYK,not soluble
17,SENLYFQGSANAVCQRCQARFSPAERIVNSNGELYHEHCFVCAQCFRPFPEGLFYEFEGRKYCEHDFQMLFA,soluble
18,MAHHHHHHMPSDGEGKVQQVNIDEIDAVTGFKKAELYVWNAYAAAFLAEGGEPETDVEAWIDDFCQRSEESGAVFDRNFVKSVCTLGIYAGPRDEFQQRSGCGKATYASGDTYEGEFFEGKKHGRGQYIFVSKGRSEADRVVSKEVELLTSAGKDAKAMVTEIATKLQLGRHVVEGIMQYGQRPCYHGDYVRGKRTGRGVMKNKDGTLYQGEFLENKRHGQGVYYYLNGDVYSGNWKAGAKDGYGTYHFAEGSEYRGEWVRGNFVQGQWILQGGSYYEGKFDKKNRPLDDAASLHYPSIQMAQTGAFRRGIWAPTSALQVCSEVPVDGMAWAD,soluble
19,EKPAMEYHWEEVFPELDSKNPMDRREMEQRREYLREKAKEAAAYAERPSSVRLASASLGTQPQEQPKPATPFQSQLTGILPEEQIQRLSEGIDKLAEAGEQLARIGRTAAAMTESYEQMQADQEGLRLNSQSYIQQMESLSRNISGLNTIYEIQLKGISSQIDTIDRINRGLAHIRDMYDNSVIDSSSFRNENERMARQLTQLNEVYARLLQALTTNVGLPGMPGNFGASNPSSSGSSPL,not soluble
20,MRGSHHHHHHGSIWEWKEAHFQDAFSSFQAMYAKSYATEEEKQRRYAIFKNNLVYIHTHNQQGYSYSLKMNHFGDLSRDEFRRKYLGFKKSRNLKSHHLGVATELL,soluble
21,MNPNFLDFEQPIADLQAKIEELRLVGNDNALNISDEISRLQDKSKALTENIFGNLSSWQIAQLARHPKRPYTLDYIGYLFSDFEELHGDRHFADDPAIVGGVARLDGSPVMVIGHQKGREVREKVRRNFGMPRPEGYRKACRLMEMAERFKMPILTFIDTPGAYPGIDAEERGQSEAIAWNLRVMARLKTPIIATVIGEGGSGGALAIGVCDQLNMLQYSTYSVISPEGCASILWKTAEKAPEAAEAMGITAERLKGLGIVDKVIDEPLGGAHRDPASMAESIRGELLAQLKMLQGLEMGELLERRYDRLMSYGAP,not soluble
22,MGSDKIHHHHHHMSRPKVIVTIAPTGGMASKQQNPHLPTQPEEIASDVYDCYNAGASVVAVHARRPDDGATCDAAIYRDINTRIRAKCDIVINNSTGGGVHGEMIGQASNGYWEILWEERLKGMDAGAELCTLDATTIIATFGGKELLMHTSPERSKHLAVEMKKRGIKPEWEVFSPTHIVQDVAALTAAGFDEEPFFINLVLGVHRNFQNAMPYSPRVLQSMVDLLPKGSIFCVSGIGPAQLPSAMNSLLLGGHVRVGLEDNLYYSAGELATNVQLVERVVRLVREMGYEPATPREAREIMGLPRSSGPRPDFAMQ,not soluble
